{"source": "paper PMC9796269", "about": "(British Journal of Clinical Pharmacology, 2022)", "origin": "cited, not measured here", "data": [{"substance": "CNP‐22: endogenous C‐type natriuretic peptide form, susceptible to Neprilysin degradation", "values": [{"measurement": "calculated half‐life (clearance in human plasma)", "value": 2.6, "unit": "min"}]}]}
